Experiment [1] deals with T1, CD20 on Raji cells (UniProt P11836 1-297, limits assumed).
T1 construct: whole, on cells
T1 sequence (looked up): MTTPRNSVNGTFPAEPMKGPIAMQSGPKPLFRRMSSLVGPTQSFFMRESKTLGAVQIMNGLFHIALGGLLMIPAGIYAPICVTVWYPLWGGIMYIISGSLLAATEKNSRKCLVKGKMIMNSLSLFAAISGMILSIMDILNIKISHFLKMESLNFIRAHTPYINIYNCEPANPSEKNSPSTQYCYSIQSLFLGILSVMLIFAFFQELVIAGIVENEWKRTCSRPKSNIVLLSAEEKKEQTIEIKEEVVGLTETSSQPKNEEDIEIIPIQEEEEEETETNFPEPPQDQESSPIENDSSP
Nature of the experiment: flow cytometry on CD20-expressing Raji cells, anti-human Fcγ A647. As to the method:
(§1) The binding activity of a bispecific γδ TCR molecule that binds γδTCR and the representative target antigen CD20 (γδTCR×CD20) comprising anti-γδ VHH domain 1D7v9, an anti-CD20 VHH domain and a heterodimeric knob-in-hole Fc region (cx11498) was assessed by flow cytometry on Raji target cells expressing CD20 and Vγ9Vδ2 T cells. PBMCs and Raji cells were thawed and resuspended to 1.0×10\hat{ }6 cells/ml in FACS buffer. 100,000 PBMCs or Raji cells were seeded in a 96-well plate. Test articles were added at a final starting concentration of 50 nM and titrated across the plate 1:4. Cells were incubated with the antibody for 30 minutes at 4 C, spun down, and washed four times with FACS buffer. Cells were labeled with anti-human Fcγ-A647 (Jackson ImmunoResearch) and PBMCs were also labeled with anti-human δ TCR-FITC (Biolegend) in 50 uL of FACS for 30 minutes at 4 C. The plate was washed twice with FACS buffer, resuspended in FACS buffer and read on the IQue flow cytometer. The mean fluorescent intensity for anti-human Fcγ-A647 was calculated using onboard software and graphed using Graphpad Prism. The γδ TCR×antigen molecule bound to both antigen (CD20) expressing Raji cells (FIG. 7A) and V 9Vδ2 T cells (FIG. 7B) in a titration dependent manner.

The target of experiment [2] is T2, human γδ TCR (Vγ9Vδ2) on human γδ T cells (human).
T2 construct: whole, on cells; also called Vδ2+ γδ T cells; Vγ9Vδ2 T cells
T2 sequence (main, as listed by the source): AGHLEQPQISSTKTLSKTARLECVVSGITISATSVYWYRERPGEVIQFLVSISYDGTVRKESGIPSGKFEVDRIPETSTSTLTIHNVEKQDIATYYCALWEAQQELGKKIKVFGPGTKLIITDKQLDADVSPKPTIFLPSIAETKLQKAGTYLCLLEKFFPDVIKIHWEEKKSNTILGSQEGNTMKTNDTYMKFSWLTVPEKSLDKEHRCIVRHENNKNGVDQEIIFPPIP
Nature of the experiment: flow cytometry on human PBMC gated on γδ TCR+ (Vγ9Vδ2) T cells, anti-human Fcγ A647. As to the method:
as §1
(Flow cytometry measures light scatter and fluorescence of single cells or particles in a stream.)

Experiment [3] addresses T3, CD33 on MOLM-13 and MV-411 cells (UniProt P20138 18-364, limits assumed).
T3 construct: whole, on cells
Nature of the experiment: flow cytometry on CD33-expressing MOLM-13 cells, anti-human A647. As to the method: (§2) A monospecific CD33 construct comprising an irrelevant second VHH domain instead of a γδTCR VHH domain (CD33×UT; cx12056) was also tested. Briefly, frozen PCMCs (previously treated with zoledronate to expand γδ T cells) were thawed and washed twice using 1×CTL thawing reagent in assay media. Cells were resuspended to 1×10\hat{ }6 cells/mL in FACs buffer and plated on a 96 well plate (100,000 cells/well). The test articles were added in 50 uL to each well at 4× the final starting concentration of 200 nM and titrated 1:4 across. 50 uL of FACS buffer was added for the final total volume of 200 uL. Cells were incubated with the test article at 4 C for 30 minutes, washed three times, and stained with Vd2-PE, CD3-BV785, and anti-human-A647 antibodies in FACS buffer for 30 minutes at 4 C. The cells were then washed 2× with FACS buffer, resuspended in 70 ul of FACS buffer and read on a Novocyte. All the molecules bound to CD33 expressing MOLM-13 (FIG. 8A) and MV4-11 (FIG. 8B) cells in a titration dependent manner. However, only the bispecific γδTCR×CD33 molecule bound to V 9Vδ2 T cells (FIG. 8C) in a titration dependent manner.

The target of experiment [4] is T2, human γδ TCR (Vγ9Vδ2) on human γδ T …. Put plainly: flow cytometry on zoledronate-expanded human PBMC gated on Vδ2+ cells, anti-human A647. As to the method:
as §2

T3 sequence (P20138 18-364 limits assumed): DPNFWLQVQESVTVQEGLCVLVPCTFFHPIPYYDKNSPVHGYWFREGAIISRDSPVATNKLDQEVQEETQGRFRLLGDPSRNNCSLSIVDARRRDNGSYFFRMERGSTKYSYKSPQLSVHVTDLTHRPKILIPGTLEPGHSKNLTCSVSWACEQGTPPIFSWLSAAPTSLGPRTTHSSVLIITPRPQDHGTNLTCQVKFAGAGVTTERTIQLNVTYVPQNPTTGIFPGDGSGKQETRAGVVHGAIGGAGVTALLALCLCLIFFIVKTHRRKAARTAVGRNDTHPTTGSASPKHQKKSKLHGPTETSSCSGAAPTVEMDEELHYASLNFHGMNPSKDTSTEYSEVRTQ

B1: cx11498, γδTCR×CD20 bispecific polypeptide (1D7v9 VHH-Fc hole / anti-CD20 VHH-Fc knob) (bispecific antibody, V domains shown)
V domain 1: EVQLLESGGGEVQPGGSLRLSCVASRGKISQYRMGWYRQAPGKELEWVAHISNTGDAAEYVDSVKGRFTISRDSTKNAVYLQMSSLRAEDTAVYKCNSVEDILAWGQGTLVTVKP
V domain 2: QVQLQESGGGLVQPGGSLRLSCAASGRTFSMGWFRQAPRKEREFVAAITYSGGSPYYASSVRGRFTISRDNAKNTVYLQMNSLKPEDTAVYYCAARLTYGSTWSAENWGQGTQVTVKP
notes: also called γδ TCRxCD20; anti-CD20×Vγ9-1D7v9
A word on the EC50 (read off the curve): it is the concentration at which the effect is half-maximal. A low value points to greater potency. Turning to B1, the “EC50 (read off the curve)” value in experiment [1] was around 5 nM; in experiment [2], around 2 nM.

B2: cx12083, γδTCR×CD33 bispecific polypeptide (anti-CD33 VHH-Fc knob / 1D7v9 VHH-Fc hole) (bispecific antibody, V domains shown)
V domain 1: EVQLVESGGGEVQPGGSLRLSCAASRSSGIDVMGWYRQAPGKERELVAEISGVGDTNYAASLADRFTVSRDNAKNTVYLQMSSLRAEDTAVYYCNAHSFLDLVGAWGQGTLVTVKP
V domain 2: B1 V domain 1
notes: also called γδ TCRxCD33; CD33×1D7v9
For B2, the binding result in experiment [3] is reported as “binds”. The “EC50 (read off the curve)” value in experiment [4] was around 20 nM.

B3: cx12056, CD33×UT (untargeted) monospecific CD33 construct (anti-CD33 VHH-Fc knob / 4GFTv1 VHH-Fc hole) (Fc fusion)
chain 1: EVQLVESGGGEVQPGGSLRLSCAASRSSGIDVMGWYRQAPGKERELVAEISGVGDTNYAASLADRFTVSRDNAKNTVYLQMSSLRAEDTAVYYCNAHSFLDLVGAWGQGTLVTVKPGGGGDKTHTCPPCPAPGGPSVFLFPPKPKDTLMISRTPEVTCVVVDVSHEDPEVKFNWYVDGVEVHNAKTKPREEQYNSTYRVVSVLTVLHQDWLNGKEYKCKVSNKALPAPIEKTISKAKGQPREPQVYTLPPCRDELTKNQVSLWCLVKGFYPSDIAVEWESNGQPENNYKTTPPVLDSDGSFFLYSKLTVDKSRWQQGNVFSCSVMHEALHNHYTQKSLSLSPGK
chain 2: EVQLVESGGGEVQPGGSLRLSCSAAPERAFSNYAMGWFRQAPGKGREFVAGITGSGRSQYYAESVKGRFTISRDNAKNTLYLQMSSLRAEDTAVYYCAARVVPVFSESTKGYVYWGQGTLVTVKPGGGGDKTHTCPPCPAPGGPSVFLFPPKPKDTLMISRTPEVTCVVVDVSHEDPEVKFNWYVDGVEVHNAKTKPREEQYNSTYRVVSVLTVLHQDWLNGKEYKCKVSNKALPAPIEKTISKAKGQPREPQVCTLPPSRDELTKNQVSLSCAVKGFYPSDIAVEWESNGQPENNYKTTPPVLDSDGSFFLVSKLTVDKSRWQQGNVFSCSVMHEALHNRYTQKSLSLSPGK
notes: also called CD33 x UT
For B3, the binding result in experiment [3] is “binds”.

The values are drawn from patent publication US20250066477A1 (INHIBRX BIOSCIENCES, published 2025).
